Drawing on paper PMC13456619, “The (Glg)ABCs of cyanobacteria: modelling of glycogen synthesis and functional divergence of glycogen synthases in Synechocystis sp. PCC 6803” (Febs Letters, 2026), this text covers Km for 3 proteins.

Substrate in data set [1]: Nc1ncnc2c1ncn2[C@@H]1O[C@H](COP(=O)(O)OP(=O)(O)O[C@H]2O[C@H](CO)[C@@H](O)[C@H](O)[C@H]2O)[C@@H](O)[C@H]1O
The data set is described as follows: purified protein. The note with it: 1 mg/mL bovine glycogen primer, 12 mM MgCl2, 50 mM HEPES-NaOH pH 8.0, 30 °C, no GlgB. The class given is biochemical, Synechocystis sp. PCC 6803.

Substrate in data set [2]: Nc1ncnc2c1ncn2[C@@H]1O[C@H](COP(=O)(O)OP(=O)(O)O[C@H]2O[C@H](CO)[C@@H](O)[C@H](O)[C@H]2O)[C@@H](O)[C@H]1O
The data set can be described thus: purified protein. The class given is biochemical, Escherichia coli. As to conditions: 1 nM enzyme, 1 mg/mL bovine glycogen primer, 12 mM MgCl2, 50 mM HEPES-NaOH pH 8.0, 30 °C, no GlgB.

B1: GlgA1 (Synechocystis sp. PCC 6803 substr. Kazusa) (protein)
chain: MKILFVAAEVSPLAKVGGMGDVVGSLPKVLHQLGHDVRVFMPYYGFIGDKIDVPKEPVWKGEAMFQQFAVYQSYLPDTKIPLYLFGHPAFDSRRIYGGDDEAWRFTFFSNGAAEFAWNHWKPEIIHCHDWHTGMIPVWMHQSPDIATVFTIHNLAYQGPWRGLLETMTWCPWYMQGDNVMAAAIQFANRVTTVSPTYAQQIQTPAYGEKLEGLLSYLSGNLVGILNGIDTEIYNPAEDRFISNVFDADSLDKRVKNKIAIQEETGLEINRNAMVVGIVARLVEQKGIDLVIQILDRFMSYTDSQLIILGTGDRHYETQLWQMASRFPGRMAVQLLHNDALSRRVYAGADVFLMPSRFEPCGLSQLMAMRYGCIPIVRRTGGLVDTVSFYDPINEAGTGYCFDRYEPLDCFTAMVRAWEGFRFKADWQKLQQRAMRADFSWYRSAGEYIKVYKGVVGKPEELSPMEEEKIAELTASYR
notes: full-length, N-terminal His tag, expressed in E. coli, IMAC and anion exchange
On to B1, for which the Km in “purified protein [1]” came out at 152 ± 3.6 µM.

B2: GlgA2 (Synechocystis sp. PCC 6803 substr. Kazusa) (protein)
chain: MYIVQIASECAPVIKAGGLGDVIYGLSRELELRGHCVELILPMYDCMRYDHIWGLHDAYRNLEVPWYGSSIFCDVFCGWVHGRLCFFIQPKSSDNFFNRGHYYGALDDHMRFAFFSKAAMEFLLRSNKRPDIIHCHDWQTGLVPVLLYEIYRFHGMDHQRVCYTIHNFKHQGIAGANILHATGLNNDSYYFSYDRLQDNFNPNAINFMKGGIVYSNYVNTVSPHHAWEARFSDISCGLGHTLEIHQQKFGGILNGLDYEVWNPEIDPLLASNFSVKTFGDKAKNKQALRERLLLETDDKKPMLCFIGRLDGQKGVHLVHHSIYYALSQGAQFVLLGSATEPNLSKWFWHEKQHLNDNPNVHLELGFDEELAHLIYGAADIIVVPSNYEPCGLTQMIGLRYGAVPVVRGVGGLVNTVFDRDYDQNHPPEKRNGFVFYQPDEYALETALSRAIALYKDDPVAFKTLALQGMAYDYSWNKPGLQYVEAYEYIRA
notes: full-length in pET28a, N-terminal His tag, expressed in E. coli, IMAC and anion exchange
On to B2, for which, in “purified protein [1]”, the Km worked out at 219 ± 9.9 µM.

B3: GlgA^ E.coli (Escherichia coli K-12) (protein)
chain: MQVLHVCSEMFPLLKTGGLADVIGALPAAQIADGVDARVLLPAFPDIRRGVTDAQVVSRRDTFAGHITLLFGHYNGVGIYLIDAPHLYDRPGSPYHDTNLFAYTDNVLRFALLGWVGAEMASGLDPFWRPDVVHAHDWHAGLAPAYLAARGRPAKSVFTVHNLAYQGMFYAHHMNDIQLPWSFFNIHGLEFNGQISFLKAGLYYADHITAVSPTYAREITEPQFAYGMEGLLQQRHREGRLSGVLNGVDEKIWSPETDLLLASRYTRDTLEDKAENKRQLQIAMGLKVDDKVPLFAVVSRLTSQKGLDLVLEALPGLLEQGGQLALLGAGDPVLQEGFLAAAAEYPGQVGVQIGYHEAFSHRIMGGADVILVPSRFEPCGLTQLYGLKYGTLPLVRRTGGLADTVSDCSLENLADGVASGFVFEDSNAWSLLRAIRRAFVLWSRPSLWRFVQRQAMAMDFSWQVAAKSYRELYYRLK
notes: as for B2
In the case of B3, the Michaelis-Menten constant (Km) in “purified protein [2]” was 275 ± 17 µM.
